This note sets out measurements from patent publication EP3494999A1, “PSMA LIGANDS FOR IMAGING AND ENDORADIOTHERAPY” (Technische Universität München, priority 2017, dated 2019).

Square brackets hold non-standard residues; d marks the D form. Peptide text beside a SMILES is read from it. * marks the point of attachment. X1 = O=C(O)CC[C@H](NC(=O)N[C@@H](CCCCNC(=O)CCCCCCC(=O)*)C(=O)O)C(=O)O; DOTAGA = O=C(O)CN1CCN(CC(=O)O)CCN(C(CCC(=O)*)C(=O)O)CCN(CC(=O)O)CC1; dPhe(4-NH2) = Nc1ccc(C[C@@H](N)C(=O)O)cc1; dTyr(3-I) = N[C@H](Cc1ccc(O)c(I)c1)C(=O)O; Phe(4-NH2) = Nc1ccc(C[C@H](N)C(=O)O)cc1

On the set-up of data set [1]: species or system SCID mice. As to conditions: mouse, in vivo. As to the method:
(§1) All animal experiments were carried out in accordance with the general animal welfare regulations in Germany (Deutsches Tierschutzgesetz, approval #55.2-1-54-2532-71-13). For the tumor model, LNCaP cells (approx. 10^7 cells) were suspended 1:1 in serum-free DMEM-F12 medium and Matrigel (BD Biosciences, Germany) and inoculated onto the right shoulder of male, 6 to 8 weeks old CB-17 SCID mice (Charles River Laboratories, Sulzfeld, Germany). Animals were used after the tumor size reached 4 to 8 mm in diameter for experiments.
Imaging experiments were conducted using a Siemens Inveon small animal PET and data analyzed by the associated Inveon Research Workplace software. Mice were anaesthetised with isoflurane and the ^68Ga-radiolabeled PSMA inhibitors (0.2 nmol, 7.0 to 12 MBq) were injected via tail vein. Dynamic imaging was carried out after on-bed injection for 90 min. The static blockade image was obtained, after 1 h p.i. with 15 min acquisition time. Blockade was done by coinjection of 8mg/kg of PMPA. All images were reconstructed using an OSEM3D algorithm without […] and attenuation correction.

A further data set concerns LNCaP xenograft. On the set-up: species or system SCID mice. As to conditions: mouse, in vivo. The method, then: as §1

In the case of `Nc1ccc(C[C@@H](NC(=O)CCC(C(=O)O)N2CCN(CC(=O)O)CCN(CC(=O)O)CCN(CC(=O)O)CC2)C(=O)N[C@H](Cc2ccc(O)c(I)c2)C(=O)N[C@H](Cc2ccccc2)C(=O)N[C@H](CCCCNC(=O)CCCCCCC(=O)NCCCC[C@H](NC(=O)N[C@@H](CCC(=O)O)C(=O)O)C(=O)O)C(=O)O)cc1` (stereo partly drawn) [[^nat/177Lu]PSMA-2, DOTAGA-(4-NH2)f-(l-y)-f-k-KuE, metal not drawn] ({DOTAGA}-[dPhe(4-NH2)][dTyr(3-I)][dF][dK](X1)-OH), the kidney clearance entry in data set [1] is reported as “accelerated kidney clearance”.
Consider `Nc1ccc(C[C@H](NC(=O)CCC(C(=O)O)N2CCN(CC(=O)O)CCN(CC(=O)O)CCN(CC(=O)O)CC2)C(=O)N[C@H](Cc2ccc(O)c(I)c2)C(=O)N[C@H](Cc2ccccc2)C(=O)N[C@H](CCCCNC(=O)CCCCCCC(=O)NCCCC[C@H](NC(=O)N[C@@H](CCC(=O)O)C(=O)O)C(=O)O)C(=O)O)cc1` (stereo partly drawn) [[^nat/177Lu]PSMA-3, DOTAGA-(4-NH2)F-(l-y)-f-k-KuE, metal not drawn] ({DOTAGA}-[Phe(4-NH2)][dTyr(3-I)][dF][dK](X1)-OH), for which the Increased tumor uptake entry with LNCaP xenograft is “about 200%”.
